# Tests used:
# [1] = system: A-498 (renal carcinoma) cells; test: Proliferation of control cells, 3H-thymidine incorporation; assay type: cell-based; conditions: endostatin 0.1-10 μg/ml
# Description: C-PAE cells were grown to confluence in DMEM with 10% fetal calf serum (FCS) and kept contact inhibited for 48 hours. Control cells were 786-O (renal carcinoma) cells, PC-3 cells, HPEC cells, and A-498 (renal carcinoma) cells. Cells were harvested with trypsinization (Life Technologies/Gibco BRL, Gaithersburg, Md., USA) at 37° C. for five minutes. A suspension of 12,500 cells in DMEM with 1% FCS was added to each well of a 24-well plate coated with 10 μg/ml fibronectin. The cells were incubated for 24 hours at 37° C. with 5% CO2 and 95% humidity. Medium was removed and replaced with DMEM containing 0.5% FCS and 3 ng/ml bFGF (R&D Systems, Minneapolis, Minn., USA). Unstimulated controls received no bFGF. Cells were treated with concentrations of Arresten or endostatin ranging from 0.01 to 50 μg/ml. All wells received 1 μCurie of ^3H-thymidine at the time of treatment. After 24 hours, medium was removed and the wells were washed with PBS. Cells were extracted with 1N NaOH and added to a scintillation vial containing 4 ml of ScintiVerse II (Fisher Scientific, Pittsburgh, Pa., USA) solution. Thymidine incorporation was measured using a scintillation counter. The results are shown in FIGS. 3A and 3B, which are a pair of graphs showing incorporation of ^3H-thymidine into C-PAE cells treated with varying amounts of Arresten (FIG. 3A) or endostatin (FIG. 3B). […]
# [2] = system: HUVEC cells; test: Cell surface labeling with biotinylated Tumstatin-44-131; assay type: binding, human; conditions: streptavidin-FITC
# Description: Recombinant E. Coli-expressed Tumstatin-44-131 was biotinylated using Sulfo-NHS-LC-Biotin (Pierce Chem. Co). Tumstatin-44-131, in a buffer containing 10% DMSO and 5% D-mannitol, was incubated with 12 M excess of Sulfo-NHS-LC-Biotin overnight at 4° C. The biotinylated Tumstatin-44-131 precipitated out of solution during this incubation. The precipitate was washed twice with distilled water, resuspended in DMSO, and then mixed 1:1 with distilled water to obtain a final concentration of approximately 4 mg/ml. The biotinylated Tumstatin-44-131 was stored at 4° C.
# For cell surface labeling, subconfluent HUVEC cells were removed from the flask using EDTA with light trypsinization, and then washed twice with DMEM containing 2% BSA. Cells were then resuspended in DMEM/BSA and incubated for 1 hour at 4° C. with either biotin-labeled Tumstatin-44-131 or the product of a mock biotin reaction run without Tumstatin-44-131. Cells were then washed twice with DMEM/BSA and then incubated with streptavidin-FITC (“Neutravidin-FITC”, Pierce Chem. Co) for thirty minutes at 4° C. Samples were then viewed on a Nikon Eclipse E600 fluorescent microscope and analyzed by flow cytometry.
# [3] = system: HUVECs; test: Endothelial cell migration, Boyden chamber; assay type: cell-based, human
# Description: In the process of angiogenesis, endothelial cells not only proliferate but also migrate. Therefore, the effect of Canstatin on endothelial cell migration was assessed. The inhibitory effect of Canstatin and endostatin on FBS-induced chemotaxis was tested on human umbilical endothelial cells (HUVECs) using the Boyden chamber assay (Neuro-Probe, Inc., Cabin John, Md., USA). HUVECs cells were grown in M199 (Life Technologies/Gibco BRL, Gaithersburg, Md., USA) containing 10% FBS and 5 ng/ml DiC 18(3) living fluorescent stain (Molecular Probes, Inc., Eugene, Oreg., USA) overnight. After trypsinizing, washing and diluting cells in M199 containing 0.5% FBS, 60,000 cells were seeded in the upper chamber wells, together with or without Canstatin ([…]). M199 medium containing 2% FBS was placed in the lower chamber as a chemotactant. The cell-containing compartments were separated from the chemotactant with polycarbonate filters (Poretics Corp., Livermore, Calif., USA) of 8 μm pore size. […] Using a fluorescent high power field, several independent homogenous images were recorded by a digital SenSys™ camera operated with Image Processing Software PMIS (Roper Scientific/Photometrics, Tucson, Ariz., USA). Cells were counted by employing the OPTIMIZE 6.0 software-program (Media Cybernetics, Rochester, N.Y.) (Klemke, R. L. et al., 1994, J. Cell. Biol. 127:859-66).
# [4] = biological target: T1, αvβ3 integrin protein (Homo sapiens, UniProt P05106+P06756); test: Competition proliferation assay with soluble αvβ3 protein, WM-164 cells; assay type: cell-based; conditions: αvβ3 protein at 2 μg/ml
# T1 construct: purchased CHEMICON Int'l, Temecula, Calif., USA
# T1 sequence (P06756 31-889 limits assumed): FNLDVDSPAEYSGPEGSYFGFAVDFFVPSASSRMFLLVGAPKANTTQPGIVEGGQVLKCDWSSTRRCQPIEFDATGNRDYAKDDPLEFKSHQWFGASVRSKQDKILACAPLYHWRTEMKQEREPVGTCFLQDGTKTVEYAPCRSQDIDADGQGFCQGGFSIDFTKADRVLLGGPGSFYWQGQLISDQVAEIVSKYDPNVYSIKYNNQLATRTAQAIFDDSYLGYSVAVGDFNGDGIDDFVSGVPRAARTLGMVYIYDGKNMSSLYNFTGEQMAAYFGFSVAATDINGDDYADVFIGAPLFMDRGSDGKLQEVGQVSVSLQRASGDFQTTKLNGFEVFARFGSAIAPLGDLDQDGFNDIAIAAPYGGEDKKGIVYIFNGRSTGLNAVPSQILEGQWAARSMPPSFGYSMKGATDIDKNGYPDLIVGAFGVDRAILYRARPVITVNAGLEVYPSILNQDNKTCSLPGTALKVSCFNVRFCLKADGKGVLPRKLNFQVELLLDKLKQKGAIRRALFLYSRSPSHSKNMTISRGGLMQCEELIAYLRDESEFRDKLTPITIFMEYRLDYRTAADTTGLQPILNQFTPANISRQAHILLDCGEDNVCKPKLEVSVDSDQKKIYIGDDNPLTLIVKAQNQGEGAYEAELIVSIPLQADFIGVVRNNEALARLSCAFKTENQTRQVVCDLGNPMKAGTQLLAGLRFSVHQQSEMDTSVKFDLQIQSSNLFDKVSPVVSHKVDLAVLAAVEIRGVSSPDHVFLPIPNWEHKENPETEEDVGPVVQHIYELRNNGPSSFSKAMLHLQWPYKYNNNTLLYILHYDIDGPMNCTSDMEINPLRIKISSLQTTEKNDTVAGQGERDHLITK
# T1 sequence (P06756 891-1048 partner limits assumed): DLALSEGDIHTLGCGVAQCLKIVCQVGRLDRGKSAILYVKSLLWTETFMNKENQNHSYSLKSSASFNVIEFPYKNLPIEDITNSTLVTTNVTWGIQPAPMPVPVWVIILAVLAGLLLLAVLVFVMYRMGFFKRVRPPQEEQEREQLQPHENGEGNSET
# T1 sequence (P05106 27-788): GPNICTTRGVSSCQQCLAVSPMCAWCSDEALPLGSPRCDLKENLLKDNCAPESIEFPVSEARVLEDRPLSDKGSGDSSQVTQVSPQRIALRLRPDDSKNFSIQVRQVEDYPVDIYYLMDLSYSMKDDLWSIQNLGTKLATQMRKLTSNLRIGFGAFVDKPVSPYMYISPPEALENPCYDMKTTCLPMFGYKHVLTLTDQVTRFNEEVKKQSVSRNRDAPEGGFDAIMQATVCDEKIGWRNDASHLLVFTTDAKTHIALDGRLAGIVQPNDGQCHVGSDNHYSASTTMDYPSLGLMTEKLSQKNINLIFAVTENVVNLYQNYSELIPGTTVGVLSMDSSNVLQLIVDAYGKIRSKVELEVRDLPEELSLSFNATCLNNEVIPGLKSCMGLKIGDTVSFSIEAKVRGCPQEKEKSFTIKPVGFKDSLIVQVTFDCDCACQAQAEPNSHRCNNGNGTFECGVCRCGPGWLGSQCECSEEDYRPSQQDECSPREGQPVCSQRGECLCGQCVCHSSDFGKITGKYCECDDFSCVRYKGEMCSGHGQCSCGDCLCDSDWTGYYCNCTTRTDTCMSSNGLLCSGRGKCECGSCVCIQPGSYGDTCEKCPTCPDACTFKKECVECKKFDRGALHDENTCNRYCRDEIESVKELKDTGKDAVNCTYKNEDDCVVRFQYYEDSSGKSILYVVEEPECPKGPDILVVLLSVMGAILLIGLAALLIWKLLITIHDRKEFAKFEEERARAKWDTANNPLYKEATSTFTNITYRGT
# Description: αvβ3 was then tested for its ability to negate the anti-proliferative effect of Tum-4 on melanoma cells. Tumstatin and Tum-4 were pre-incubated for 30 minutes at room temperature with αvβ3 integrin protein, then added to WM-164 cells grown in 96-well plates. After 48 hours of incubation, the increase in cell number was determined by methylene blue staining. Tumstatin had no effect on WM-164 cells.
molecule,measurement,setting,value
"endostatin: tumor associated angiogenesis inhibitor used as comparator (protein, UniProt P39060 1572-1754, looked up, Endostatin) Endostatin: HSHRDFQPVLHLVALNSPLSGGMRGIRGADFQCFQQARAVGLAGTFRAFLSSRLQDLYSIVRRADRAAVPIVNLKDELLFPSWEALFSGSEGPLKPGARIFSFDGKDVLRHPTWPQKSVWHGSDPNGRRLTESYCETWRTEAPSATGQASSLLGGRLLGQSAASCHHAYIVLCIENSFMTASK",effect on proliferation,[1],did not inhibit
"Tumstatin-44-131: residues 44 to 131 of full-length Tumstatin (SEQ ID NO:33) (protein, Tumstatin-45-132 (amino acids 45-132 of SEQ ID NO10)) FSFLFVQGNQRAHGQDLGTLGSCLQRFTTMPFLFCNVNDVCNFASRNDYSYWLSTPALMPMNMAPITGRALEPYISRCTVCEGPAIAI",binding to the endothelial cell surface,[2],binds the surface of endothelial cells
"Canstatin: NC1 domain of the α2 chain of Type IV collagen (SEQ ID NO:6) (protein, listed as Homo sapiens) VSIGYLLVKHSQTDQEPMCPVGMNKLWSGYSLLYFEGQEKAHNQDLGLAGSCLARFSTMPFLYCNPGDVCYYASRNDKSYWLSTTAPLPMMPVAEDEIKPYISRCSVCEAPAIAIAVHSQDVSIPHCPAGWRSLWIGYSFLMHTAAGDEGGGQSLVSPGSCLEDFRATPFIECNGGRGTCHYYANKYSFWLTTIPEQSFQGSPSADTLKAGLIRTHISRCQVCMKNL",concentration with significant effect on migration,[3],10 ng/mL
"Tum-4: residues 181 to 244 of Tumstatin (SEQ ID NO:25) (protein, Tum-4 (amino acids 181-244 of SEQ ID NO10)) EFRASPFLECHGRGTCNYYSNSYSFWLASLNPERMFRKPIPSTVKAGELEKIISRCQVCMKKRH",recovery of anti-proliferative effect by soluble αvβ3 protein,[4],76.7%
